PMC314469, “Protein Interaction Networks by Proteome Peptide Scanning” (PLoS Biology, 2004)

B1: Q9NYJ2 360-373 (peptide)
chain: NFGNLPRPGRGARG
B2: O60289 975-988 (peptide)
chain: ARKQPRRPHFLLEP
B3: Q12920 238-251 (peptide)
chain: NIEKIKRPRSSNAE
B4: Q05209 516-529 (peptide)
chain: NSDTPPRPDRLPLD
B5: Q9ULP1 1037-1050 (peptide)
chain: NKIEFKRPGKAANK
B6: O43776 380-393 (peptide)
chain: NFQPPKRPFKRMNY
B7: O60306 1318-1331 (peptide)
chain: NNPLIGRPNKVTTV
B8: Q96JI4 1223-1236 (peptide)
chain: AREEFRRPRESLLN
B9: O43284 274-287 (peptide)
chain: NSQAPRRPWLASHM
B10: Q15598 1736-1749 (peptide)
chain: NETGLSRPRRTAMS
B11: O75925 239-252 (peptide)
chain: NGVEPKRPSRPINI
B12: Q9Y5X7 8-21 (peptide)
chain: NINGIRRPLQGVAN
B13: P54296 461-474 (peptide)
chain: NSAGISRPSRVSDA
B14: Q9BX63 202-216 (peptide)
chain: NSFSPQKPPGHSSR
B15: Q9Y6A1 1-14 (peptide)
chain: MWGFLKRPVVVTAD
B16: Q9Y3S6 986-999 (peptide)
chain: NNRVLRRPSERGRA
B17: Q9H251 2718-2731 (peptide)
chain: NEPLFVRPPKGSPQ
B18: Q9P2M9 345-358 (peptide)
chain: NIQTLDRPIKKGPV
B19: P35711 136-149 (peptide)
chain: NEPHIKRPMNAFMV
B20: Q9Y367 343-356 (peptide)
chain: NFGDLGRPGRGGRG
B21: Q14676 96-109 (peptide)
chain: NGTQILRPPKVLSP
B22: Q9H6S7 54-67 (peptide)
chain: NQKQLKRPAQGKRQ
B23: P15538 413-426 (peptide)
chain: NPALFPRPERYNPQ
B24: Q9NNY5 699-712 (peptide)
chain: NLLPPKRPIKEVLT
B25: Q96TH1 910-923 (peptide)
chain: NSFIPKRPIPTIKD
B26: P00533 1094-1107 (peptide)
chain: NQSVPKRPAGSVQN
B27: Q9Y2K9 813-827 (peptide)
chain: NRWGPGRPPFRKAQ
B28: Q9ULU1 327-340 (peptide)
chain: NMNRFDRPDRNVRQ
B29: Q92187 271-284 (peptide)
chain: NKVPIKRPSTGLLM
B30: P23246 281-294 (peptide)
chain: NLSLLRRPGEKTYT
B31: P47901 342-355 (peptide)
chain: NSHLLPRPLRHLAS
B32: P19099 413-426 (peptide)
chain: NAALFPRPERYNPQ
B33: O75560 490-503 (peptide)
chain: NLFGPKRPKALKLL
B34: Q9Y3I1 502-515 (peptide)
chain: NDRFPFRPSRGRPT
B35: Q9NWE7 371-384 (peptide)
chain: NGYFFKRPYPFVLF
B36: Q9HC40 116-129 (peptide)
chain: NEDYPRRPLTRARS
B37: Q9Y6X2 222-235 (peptide)
chain: NGAEPKRPSRPINI
B38: Q9Y284 5-18 (peptide)
chain: NMSDPRRPNKVLRY
B39: O15050 583-596 (peptide)
chain: NSEHFHRPLRRSEA
B40: Q13308 4-17 (peptide)
chain: ARGSPARPRRLPLL
B41: P53539 138-151 (peptide)
chain: ARARPRRPREETLT
B42: Q92186 286-299 (peptide)
chain: NKVHIKRPTTGLLM

Key:
[1] = biological target: T1, amphyphisin SH3 (AMPH_HUMAN), P49418; assay: SPOT array
T1 chain: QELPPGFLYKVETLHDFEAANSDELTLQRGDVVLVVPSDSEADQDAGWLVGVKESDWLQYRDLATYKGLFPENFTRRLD

[2] = biological target: endophilin SH3 (SH3G2_HUMAN), Q99962; assay: SPOT array

Binder	normalised SPOT signal, Boehringer light units (BLU); mean over the file's lines of this peptide [1]	normalised SPOT signal, Boehringer light units (BLU); mean over the file's lines of this peptide [2]
B1	946	1340
B2	30.4	31.6
B3	26.5	55.4
B4	125	0
B5	124	128
B6	793	525
B7	45.8	267
B8	19.8	27.4
B9	88.2	6860
B10	742	154
B11	4650	35.6
B12	17.3	44.7
B13	362	95.7
B14	43.8	505
B15	37.8	121
B16	150	652
B17	215	154
B18	16.4	58.7
B19	46.1	0
B20	895	882
B21	5	150

Binder	normalised SPOT signal, Boehringer light units (BLU); mean over the file's lines of this peptide [1]	normalised SPOT signal, Boehringer light units (BLU); mean over the file's lines of this peptide [2]
B22	-0	68.6
B23	318	102
B24	370	1560
B25	49.2	556
B26	23.4	26.5
B27	67.5	6400
B28	3660	452
B29	6.6	366
B30	29.7	23.4
B31	1620	2290
B32	699	63.6
B33	113	1970
B34	2600	4510
B35	64.4	106
B36	393	690
B37	3920	105
B38	641	1060
B39	512	199
B40	6690	1930
B41	42.3	181
B42	32.2	125
